{"source": "patent US20250163404A1", "about": "“PHAGE DISPLAY-BASED CELL-PENETRATING PEPTIDE DISCOVERY PLATFORM AND METHODS OF MAKING AND USING THE SAME” (Eli Lilly and Company, priority 2022, published 2025)", "molecules": {"B1": {"name": "H4: engineered M13 IX104 phage clone with FLVIR cathepsin substrate copies in pIII GS2 linker (nucleic acid)", "DNA": "GCTGAAACTGTTGAAAGTTGTTTAGCAAAATCCCATACAGAAAATTCATTTACTAACGTCTGGAAAGACGACAAAACTTTAGATCGTTACGCTAACTATGAGGGCTGTCTGTGGAATGCTACAGGCGTTGTAGTTTGTACTGGTGACGAAACTCAGTGTTACGGTACATGGGTTCCTATTGGGCTTGCTATCCCTGAAAATGAGGGTGGTGGCTCTGAGGGTGGCGGTTCTGAGGGTGGCGGTTCTGAGGGTGGCGGTACTAAACCTCCTGAGTACGGTGATACACCTATTCCGGGCTATACTTATATCAACCCTCTCGACGGCACTTATCCGCCTGGTACTGAGCAAAACCCCGCTAATCCTAATCCTTCTCTTGAGGAGTCTCAGCCTCTTAATACTTTCATGTTTCAGAATAATAGGTTCCGAAATAGGCAGGGGGCATTAACTGTTTATACGGGCACTGTTACTCAAGGCACTGACCCCGTTAAAACTTATTACCAGTACACTCCTGTATCATCAAAAGCCATGTATGACGCTTACTGGAACGGTAAATTCAGAGACTGCGCTTTCCATTCTGGCTTTAATGAGGATTTATTTGTTTGTGAATATCAAGGCCAATCGTCTGACCTGCCTCAACCTCCTGTCAATGCTGGCGGCGGCTCTTTTTTAGTTATTAGAGGTGGTGGTTCTGGTGGCGGCTCTGAGGGTGGTGGCTCTGAGTTTTTAGTTATTAGAGGTGGCGGTTCTGAGGGTGGCGGCTCTGAGGGAGGCGGTTCCGGTGGTGGCTCTGGTTCCGGTGATTTTGATTATGAAAAGATGGCAAACGCTAATAAGGGGGCTATGACCGAAAATGCCGATGAAAACGCGCTACAGTCTGACGCTAAAGGCAAACTTGATTCTGTCGCTACTGATTACGGTGCTGCTATCGATGGTTTCATTGGTGACGTTTCCGGCCTTGCTAATGGTAATGGTGCTACTGGTGATTTTGCTGGCTCTAATTCCCAAATGGCTCAAGTCGGTGACGGTGATAATTCACCTTTAATGAATAATTTCCGTCAATATTTACCTTCCCTCCCTCAATCGGTTGAATGTCGCCCTTTTGTCTTTAGCGCTGGTAAACCATATGAATTTTCTATTGATTGTGACAAAATAAACTTATTCCGTGGTGTCTTTGCGTTTCTTTTATATGTTGCCACCTTTATGTATGTATTTTCTACGTTTGCTAACATACTGCGTAATAAGGAGTCT"}}, "key": {"[1]": {"test_system": "HEK293 lysosome (lysosomal cathepsins)", "assay": "Phage infectivity after incubation with HEK293 lysosomal extract", "format": "biochemical", "conditions": "30 min. incubation at 37° C., n=3", "description": "(§1) Subcellular fractionation: cytosolic and endosomal extraction are prepared according to manufactures' protocols from ThermoFisher Scientific (Cat. No. 89842) and Invent Biotechnologies (Cat. No. #ED-028), respectively. The starting cell number is 5×10^6 cells for one cytosolic extraction, and 3×10^7 cells for one endosome extraction. Lysosomal isolation from different cell types are optimized based on an Abcam kit (Cat. No. ab234047) for homogenization step and increased isolation scale. The starting cell number for one lysosomal isolation is 2×10^8 cells.\n(§2) Ten rounds of overnight phage culture described above are grown to evaluate substrate sequence retention for each phage clone. Sanger sequencing is performed after each round of phage culture to confirm the substrate insertion. Final phage clones with the substrate insertion are then evaluated for cathepsin accessibility by incubation with lysosomal extract from different mammalian cell lines.\n(§3) The accessibility of clone A1 and H4 to active cathepsins is further assessed in lysosomal extracts from CaCo2 and HEK293 cells in addition to CHO cells. […] (see, FIG. 3). CaCo2 lysosome: clone A1 (mean=79.83%, SEM=9.5%) vs. H4 (mean=34.63%, SEM=13.5%), p=0.22, n=3. HEK293 lysosome: clone A1 (mean=75.1%, SEM=9.7%) vs. H4 (mean=9.5%, SEM=1.6%), p=0.018, n=3. […]"}, "[2]": {"test_system": "CaCo2 lysosome (lysosomal cathepsins)", "assay": "Phage infectivity after incubation with CaCo2 lysosomal extract", "format": "biochemical", "conditions": "30 min. incubation at 37° C., n=3", "description": "as §1, §2, §3"}, "[3]": {"test_system": "CHO cell lysosomal extracts (active cathepsins)", "assay": "Phage infectivity after incubation with CHO cell lysosomal extract", "format": "biochemical, Chinese hamster", "description": "as §1, §2\nThe accessibility of the engineered GS2 linker of the 18 phage clones to active cathepsins (confirmed by fluorogenic cleaving assay) is assessed by incubating phage clones with CHO cell lysosomal extracts at 37° C. The assessment is repeated 4 times with independently isolated lysosome under acidic environment (about pH 5). […] (as shown in the representative graph in FIG. 2).\nThe accessibility of clone A1 and H4 to active cathepsins is further assessed in lysosomal extracts from CaCo2 and HEK293 cells in addition to CHO cells. […] (see, FIG. 3). CaCo2 lysosome: clone A1 (mean=79.83%, SEM=9.5%) vs. H4 (mean=34.63%, SEM=13.5%), p=0.22, n=3. HEK293 lysosome: clone A1 (mean=75.1%, SEM=9.7%) vs. H4 (mean=9.5%, SEM=1.6%), p=0.018, n=3. CHO lysosome: clone A1 (mean=95.58%, SEM=13.8%) vs. H4 (mean=2.738%, SEM=0.8%), p<0.0001, n=6."}}}
{"molecule": "B1", "values": [{"measurement": "infectivity (mean)", "setting": "[1]", "value": 9.5, "unit": "%"}, {"measurement": "infectivity (mean)", "setting": "[2]", "value": 34.63, "unit": "%"}, {"measurement": "infectivity reduction", "setting": "[3]; CHO lysosomal extract, 37° C., about pH 5", "value": 9800}, {"measurement": "infectivity (mean)", "setting": "[3]; CHO lysosomal extract, 37° C., about pH 5, n=4", "value": 2, "unit": "%"}, {"measurement": "infectivity (mean)", "setting": "[3]; CHO lysosome, 30 min. incubation at 37° C., n=6", "value": 2.738, "unit": "%"}]}
